What was measured:
[1] = molecular target: CD47 on the cell membrane of human lung cancer cell lines A549, SPC-A-1 and 95D (Homo sapiens, UniProt Q08722); assay: cell-based or functional assay
[2] = molecular target: T1, CD47/ECD (Gln 19 - Pro 139, His Tag, ACROBiosystems) (Homo sapiens, UniProt Q08722-3); assay: ELISA; CD47/ECD coated (0.2 ug per well, PBS pH 7.4, 16 h at 4°C), blocked with 2% BSA in PBST; IgG titrated at 11 two-fold dilutions in PBST with 0.5% BSA, 1 h; detected with HRP/anti-human IgG conjugate; EC50 by ED50 Plus v1.0; n = 3; conditions: both partners purified
T1 construct: also called CD47 antigen; CD47/ECD antigen; source: bought: ACROBiosystems (expressed from human 293 cells, HEK293)
T1 sequence (Q08722 19-139): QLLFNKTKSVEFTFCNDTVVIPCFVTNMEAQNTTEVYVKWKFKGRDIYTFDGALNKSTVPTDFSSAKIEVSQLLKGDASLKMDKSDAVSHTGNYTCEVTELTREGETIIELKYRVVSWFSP

Sequence of CD47 on the cell membrane of human lung cancer cell lines A549, SPC-A-1 and 95D (Q08722 19-323): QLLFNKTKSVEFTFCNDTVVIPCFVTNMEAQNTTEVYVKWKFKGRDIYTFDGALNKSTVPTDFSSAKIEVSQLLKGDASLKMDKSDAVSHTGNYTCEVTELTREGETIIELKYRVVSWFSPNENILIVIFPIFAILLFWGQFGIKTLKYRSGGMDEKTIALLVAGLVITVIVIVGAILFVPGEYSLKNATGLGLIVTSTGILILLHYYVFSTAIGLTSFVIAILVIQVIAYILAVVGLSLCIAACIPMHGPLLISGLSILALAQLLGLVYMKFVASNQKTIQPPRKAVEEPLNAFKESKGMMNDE

Row | Binder | EC50 [2] [nM] | IC50 of cytotoxicity on 95D cells (relative cell viability, WST-1; 0.064-40 nM) [1] [nM]
1 | 7DC2-VCMMAE (7DC2 conjugated with maleimidocaproyl-valine-citrulline-monomethyl auristatin E) (antibody, V domains shown, as the heavy chain of m1 (mouse Fab part); human IgG1 Fc fragment; as the light chain of m1; Antibody-drug conjugate of m1; drug distribution 2, 4, 6 and 8 per antibody; also called 7DC-VCMMAE; source: 7DC2 from Expi293, reduced with TCEP, conjugated with VCMMAE, purified (Amicon-30 kDa); copies: 2 + 2) VH: QVQLQQSGPELVKPGASVKMSCKASGYTFTNYFMHWVKQKPGQGLEWIGYINPYNDGTKYNEKFKGKATLTSDKSSSTAYMELSSLTSEDSAVYYCTKGGRYSMDYWGQGTTLTVSS VL: DVVMTQTPLSLPVRLGDEVSISCRSSQTIVFTNGNTYLEWYLQKPGQSPKLLIYKVSNRFSGVPDRFSGSGSGTDFTLTISRVEAEDLGIYYCFQGSHVPYTFGGGTKLELK | 0.15 | ~40
2 | 7DC2 monoclonal antibody (chimeric anti-human CD47, mouse Fab plus human IgG1 Fc) (antibody, V domains shown, human IgG1 Fc fragment; mouse light chain of 7DC2; Chimeric IgG1; also called 7DC2 mAb; 7CD2; source: Expi293, transfected with light and heavy chain plasmids, purified; copies: 2 + 2) VH: QVQLQQSGPELVKPGASVKMSCKASGYTFTNYFMHWVKQKPGQGLEWIGYINPYNDGTKYNEKFKGKATLTSDKSSSTAYMELSSLTSEDSAVYYCTKGGRYSMDYWGQGTTLTVSS VL: DVVMTQTPLSLPVRLGDEVSISCRSSQTIVFTNGNTYLEWYLQKPGQSPKLLIYKVSNRFSGVPDRFSGSGSGTDFTLTISRVEAEDLGIYYCFQGSHVPYTFGGGTKLELK | 0.15 | –

Now those with a lower EC50 [2], led by results:

Row | EC50 [2] [nM] | Binder | IC50 of cytotoxicity on 95D cells (relative cell viability, WST-1; 0.064-40 nM) [1] [nM]
3 | 0.13 | 7DC4-VCMMAE (7DC4 conjugated with maleimidocaproyl-valine-citrulline-monomethyl auristatin E) (antibody, V domains shown, as the heavy chain of m2 (mouse Fab part); human IgG1 Fc fragment; as the light chain of m2; Antibody-drug conjugate of m2; drug distribution 2, 4, 6 and 8 per antibody; also called 7DC4-CVMMAE; 7DC4-MMAE; source: 7DC4 from Expi293, reduced with TCEP, conjugated with VCMMAE, purified (Amicon-30 kDa); copies: 2 + 2) VH: QVQLKQSGAELVQPGASVKLSCKASGYTFTNYYMYWLRQRPGQGLEWIGEINPSNGGTDFNEKFKSKATLTVDKSSSTAFMQLSSLTSDDSAVYYCARGGFTMDYWGQGTTVTVSS VL: DVVMTQTPLSLPVSLGDQASISCRSSQSLVHSNGNTYLHWYLQKPGQSPKLLIYKVSNRFSGVPDRFSGSGSGTDFTLKISRVEAEDLGVYFCSQSTHVPLTFGAGTKLELK | ~40
4 | 0.13 | 7DC4 monoclonal antibody (chimeric anti-human CD47, mouse Fab plus human IgG1 Fc) (antibody, V domains shown, human IgG1 Fc fragment; mouse light chain of 7DC4; Chimeric IgG1; also called 7DC4 mAb; 7CD4; source: Expi293, transfected with light and heavy chain plasmids, purified; copies: 2 + 2) VH: QVQLKQSGAELVQPGASVKLSCKASGYTFTNYYMYWLRQRPGQGLEWIGEINPSNGGTDFNEKFKSKATLTVDKSSSTAFMQLSSLTSDDSAVYYCARGGFTMDYWGQGTTVTVSS VL: DVVMTQTPLSLPVSLGDQASISCRSSQSLVHSNGNTYLHWYLQKPGQSPKLLIYKVSNRFSGVPDRFSGSGSGTDFTLKISRVEAEDLGVYFCSQSTHVPLTFGAGTKLELK | –

Reference: publication PMC9133542, “Development of Novel CD47-Specific ADCs Possessing High Potency Against Non-Small Cell Lung Cancer in vitro and in vivo” (Frontiers in Oncology, 2022)
